This passage reports t1/2, fold longer half life than wild type CCL2 and fold faster kinetic off-rate than with wild type R17 results from publication PMC7039123.

For experiment [1], the target named is R17^GAG2 (333KGRRK337 to 333DGEED337) (rodent herpesvirus Peru (RHVP)). Description: SPR.
The target in experiment [2] is R17 266NAGAQ270 mutant (rodent herpesvirus Peru (RHVP)). Briefly: SPR. (Surface plasmon resonance follows binding to a sensor surface in real time, without labels.)

A value given as a limit tells only on which side of the number the result lay.

In experiment [1], “murine CCL2^K47N (from UniProt P10148 24-148) (ligand)” yielded a t1/2 of 5.5 s.
The same measure, in the same setting: the value for “murine CCL2^L46RK47N (from UniProt P10148 24-148) (ligand)” was greater than 900 s.
Consider “murine CCL2^L46R (from UniProt P10148 24-148) (ligand)”, for which, in experiment [1], the fold longer half life than wild type CCL2 turned out to be 2 fold.

B1: murine CCL3 (ligand)
chain: APYGADTPTACCFSYSRKIPRQFIVDYFETSSLCSQPGVIFLTKRNRQICADSKETWVQEYITDLELNA
In experiment [2], B1 showed a fold faster kinetic off-rate than with wild type R17 greater than 100 fold and a t1/2 of 11 s.
